Molecular target: eukaryotic translation initiation factor 4E (eIF4E) (UniProt P06730 1-217)
Test: ITC

Sequence of eukaryotic translation initiation factor 4E (eIF4E) (P06730 whole entry): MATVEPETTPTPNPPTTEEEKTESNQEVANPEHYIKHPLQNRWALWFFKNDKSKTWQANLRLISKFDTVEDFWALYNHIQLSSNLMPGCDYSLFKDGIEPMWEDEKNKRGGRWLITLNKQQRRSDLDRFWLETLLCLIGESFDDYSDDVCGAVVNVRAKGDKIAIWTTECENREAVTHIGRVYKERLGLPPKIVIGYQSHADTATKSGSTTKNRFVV

Kd [nM] | Binder
2.4 | pT46 4E-BP2 (protein, phospho-Thr46) MSSSAGSGHQPSQSRAIPTRTVAISDAAQLPHDYCTAPGGTLFSTTPGGTRIIYDRKFLLDRRNAPMAQAPPCHLPNIPGVTAPGTLIEDSKVEVNNLNNLNNHDRKHAVGDDAQFEMDI
267 | pT37 pT46 (Two-phospho) 4E-BP2 (protein, phospho-Thr37, phospho-Thr46) MSSSAGSGHQPSQSRAIPTRTVAISDAAQLPHDYCTTPGGTLFSTTPGGTRIIYDRKFLLDRRNAPMAQAPPCHLPNIPGVTAPGTLIEDSKVEVNNLNNLNNHDRKHAVGDDAQFEMDI

The remaining lines, values behind:

Binder | Kd [nM]
pT37 4E-BP2 (protein, phospho-Thr37) MSSSAGSGHQPSQSRAIPTRTVAISDAAQLPHDYCTTPGGTLFSTAPGGTRIIYDRKFLLDRRNAPMAQAPPCHLPNIPGVTAPGTLIEDSKVEVNNLNNLNNHDRKHAVGDDAQFEMDI | 7.2
pS65 pT70 pS83 (T37A/T46A) 4E-BP2 (protein, phospho-Ser65, phospho-Thr70, phospho-Ser83) MSSSAGSGHQPSQSRAIPTRTVAISDAAQLPHDYCTAPGGTLFSTAPGGTRIIYDRKFLLDRRNSPMAQTPPCHLPNIPGVTSPGTLIEDSKVEVNNLNNLNNHDRKHAVGDDAQFEMDI | 11.3
G39V/G48V Five-phospho 4E-BP2 (protein, phospho-Thr37, phospho-Thr46, phospho-Ser65, phospho-Thr70, phospho-Ser83 (legend prints pT36, taken as a typo for pT37)) MSSSAGSGHQPSQSRAIPTRTVAISDAAQLPHDYCTTPVGTLFSTTPVGTRIIYDRKFLLDRRNSPMAQTPPCHLPNIPGVTSPGTLIEDSKVEVNNLNNLNNHDRKHAVGDDAQFEMDI | 36.1
Non-phospho 4E-BP2 (protein) MSSSAGSGHQPSQSRAIPTRTVAISDAAQLPHDYCTTPGGTLFSTTPGGTRIIYDRKFLLDRRNSPMAQTPPCHLPNIPGVTSPGTLIEDSKVEVNNLNNLNNHDRKHAVGDDAQFEMDI | 3.2

From PMC7305185 (2020)
